T1: Macaca Fascicularis GP130 extracellular domain expressed with a C-terminal myc-myc-hexahistidine tag (Macaca fascicularis, UniProt P40189 23-619 (human entry))
T1 construct: also called mfGP130-MMH; mfGP130-mmH
T1 chain: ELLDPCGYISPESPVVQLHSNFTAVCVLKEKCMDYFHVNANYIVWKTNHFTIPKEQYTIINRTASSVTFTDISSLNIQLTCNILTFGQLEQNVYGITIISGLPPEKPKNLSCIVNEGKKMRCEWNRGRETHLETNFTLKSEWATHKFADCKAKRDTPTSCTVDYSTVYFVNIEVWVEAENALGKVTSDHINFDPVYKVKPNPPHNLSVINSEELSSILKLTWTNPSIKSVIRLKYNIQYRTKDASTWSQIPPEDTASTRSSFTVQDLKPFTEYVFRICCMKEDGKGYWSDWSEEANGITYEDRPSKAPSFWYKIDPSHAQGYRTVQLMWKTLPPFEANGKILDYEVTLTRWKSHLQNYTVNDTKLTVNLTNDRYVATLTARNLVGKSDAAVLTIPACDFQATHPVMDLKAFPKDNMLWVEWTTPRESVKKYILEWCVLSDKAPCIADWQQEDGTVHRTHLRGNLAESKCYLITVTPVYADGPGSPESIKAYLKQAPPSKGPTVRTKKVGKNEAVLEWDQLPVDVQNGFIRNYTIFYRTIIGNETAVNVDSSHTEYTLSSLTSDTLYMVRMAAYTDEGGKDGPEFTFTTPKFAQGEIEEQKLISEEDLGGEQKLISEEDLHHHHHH

T2: mutant human LEPR (Y1141F) on HEK293.STAT3.Luc.GP130.hLEPR (Y1141F) cells (human, UniProt P48357 22-1165)
T2 sequence (looked up): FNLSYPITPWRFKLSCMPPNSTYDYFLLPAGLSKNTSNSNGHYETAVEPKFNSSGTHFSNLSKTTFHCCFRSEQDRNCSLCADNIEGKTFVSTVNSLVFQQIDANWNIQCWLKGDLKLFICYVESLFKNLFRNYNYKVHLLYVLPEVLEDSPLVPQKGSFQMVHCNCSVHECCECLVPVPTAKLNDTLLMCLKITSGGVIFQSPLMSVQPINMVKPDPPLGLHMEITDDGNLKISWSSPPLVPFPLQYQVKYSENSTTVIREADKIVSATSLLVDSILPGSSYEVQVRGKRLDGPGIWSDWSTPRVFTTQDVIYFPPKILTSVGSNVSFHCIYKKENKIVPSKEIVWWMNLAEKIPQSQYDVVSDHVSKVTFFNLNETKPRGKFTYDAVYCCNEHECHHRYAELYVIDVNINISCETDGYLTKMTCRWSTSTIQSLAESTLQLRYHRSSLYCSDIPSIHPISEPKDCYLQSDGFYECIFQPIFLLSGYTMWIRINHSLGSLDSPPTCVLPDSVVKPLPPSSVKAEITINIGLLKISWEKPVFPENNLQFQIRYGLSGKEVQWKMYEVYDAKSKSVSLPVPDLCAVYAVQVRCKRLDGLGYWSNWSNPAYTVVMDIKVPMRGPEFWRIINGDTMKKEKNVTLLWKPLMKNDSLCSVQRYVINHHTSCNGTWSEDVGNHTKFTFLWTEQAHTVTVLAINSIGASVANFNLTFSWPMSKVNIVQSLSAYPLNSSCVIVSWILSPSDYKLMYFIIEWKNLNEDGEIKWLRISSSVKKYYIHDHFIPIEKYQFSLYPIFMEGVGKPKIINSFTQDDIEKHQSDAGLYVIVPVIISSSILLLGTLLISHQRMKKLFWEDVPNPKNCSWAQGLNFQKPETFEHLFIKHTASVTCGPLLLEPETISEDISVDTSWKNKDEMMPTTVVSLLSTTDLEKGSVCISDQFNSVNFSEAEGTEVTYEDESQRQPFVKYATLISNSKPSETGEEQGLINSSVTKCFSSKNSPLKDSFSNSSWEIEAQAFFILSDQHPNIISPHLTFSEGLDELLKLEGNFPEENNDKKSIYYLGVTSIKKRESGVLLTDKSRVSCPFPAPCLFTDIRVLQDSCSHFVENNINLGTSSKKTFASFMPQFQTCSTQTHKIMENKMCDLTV


Experiments:
[1] = target: T1, Macaca Fascicularis GP130 extracellular …; assay: SPR, bsAb captured by anti-hFc, 37C
How it was run: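 Anti-hFc-captured bispecific antibodies received 3-fold serial dilutions of LEPR or GP130 (100 nM–3.7 nM) in HBS-ET, pH 7.4, injected for 4 min with 10 min dissociation at 25 °C or 37 °C. ka and kd came from a 1:1 binding model with mass transport limitation, and KD and t½ were calculated from these rate constants.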

[2] = target: T2, mutant human LEPR (Y1141F) on …; assay: cell-based or functional assay

| 100 nM mfGP130-MMH Bound (RU) [1] [RU] | Kd [1] [nM] | koff [1] [s⁻¹] | kon [1] [M⁻¹ s⁻¹] | t½ [1] [min] | EC50 (M), STAT3-luciferase activation of HEK293.STAT3.Luc.GP130.hLEPR (Y1141F) cells, 10 nM leptin [2] [M] | Binder |
| --- | --- | --- | --- | --- | --- | --- |
| 18 | 179 | 0.0125 | 69800 | 0.9 | 2.11e-09 | bsAb21236D (bispecific antibody, V domains shown, LEPR x GP130 bispecific with common light chain; also called H4H21236D; bsAb21236 (LEPR × GP130)) VH 1: QVQLQESGPGLVKPSQTLSLTCTVSGGSISSGGDYWSWIRQLPGKGLEWIGYIYYSGSAYYNPSLKSRGTISIDTSKNQFSLKLTSVTAADTAVYFCVKLRFLEWFLGGWFGPWGQGTLVTVSS VH 2: QVQLVESGGGLVKPGGSLRLSCAASGFTFSDYYMTWIRQTPGKGLDWVSYISSSGTNKYNADSVKGRFTISRDNAKNSLYLQMNSLRAEDTAVYYCVRDPPWGMDVWGQGTTVTVSS VL: not shown |
| 21 | 215 | 0.00792 | 36900 | 1.5 | 2.46e-09 | bsAb21237D (bispecific antibody, V domains shown, LEPR x GP130 bispecific with common light chain; also called H4H21237D; bsAb21237 (LEPR × GP130)) VH 1: EVQLVESGGGLVQPGGSLRLSCAASGFTFSNYGMTWVRQAPGKGLEWVSAITGGGGSTYYSNSVKGRFTISRDNSKNTVYLRMNSVRAEDTAVYYCAKYKWNFVDDWGQGTTVTVSS VH 2: QVQLVESGGGLVKPGGSLRLSCAASGFTFSDYYMTWIRQTPGKGLDWVSYISSSGTNKYNADSVKGRFTISRDNAKNSLYLQMNSLRAEDTAVYYCVRDPPWGMDVWGQGTTVTVSS VL: not shown |
